The values below come from patent US20210179706A1 (AKESO BIOPHARMA, published 2021).

One test deals with T1, human IL-1β-hFc (human, UniProt P01584 117-269, limits assumed).
T1 construct: also called human IL-1f3-hFc [sic]; not shown: human IgG Fc purification tag
Put plainly: competition ELISA on coated IL-1β-hFc, competitor IL-1R1(1-332)-his; 4-parameter fit. (In general: An ELISA detects its analyte on a solid surface through an enzyme-linked reagent.)

For test [1], the target named is T2, human IL-1β-His-Bio (human, UniProt P01584 117-269, limits assumed, biotinylated with EZ-Link Sulfo-NHS-LC-Biotinylation Kit (sites not given)).
T2 construct: also called biotinylated human IL-1β-His; not shown: His tag
Put plainly: ELISA, IL-1β-His-Bio captured on streptavidin; 4-parameter fit.

The target of test [2] is T2, human IL-1β-His-Bio. Put plainly: ELISA, IL-1β-His-Bio captured on streptavidin; antibody 0.012 µg/mL.
Experimental: A plate was coated with 50 μL of 2 μg/mL SA (streptavidin) in each well, and incubated overnight at 4° C. After the plate was washed once and the residual liquid was removed, each well was blocked with 300 μL of 1% BSA solution (dissolved in PBS) and the plate was incubated at 37° C. for 2 h. The plate was washed three times and the residual liquid was removed. Human IL-1β-His-Bio in each well was diluted with 50 μL of PBST to 0.2 μg/mL, and the plate was incubated at 37° C. for 30 min. Then the plate was washed three times and the residual liquid was removed. […] Two duplicate wells were set for the above concentrations, with a final volume of 100 μL per well, and the plate was incubated at 37° C. for 30 min. […] After the plate was washed four times and the residual liquid was removed, 50 μL of TMB chromogenic solution was added to each well for color developing for 5 min away from light at room temperature, then 50 μL of stop solution was added to each well to stop the reaction. Then the plate was put into a plate reader immediately, and the OD value of each well in the plate was read at 450 nm.
SoftMax Pro 6.2.1 software was used to analyze and process the data. 4-parameter fitted curves were plotted using the antibody concentration as the abscissa and the absorbance as the ordinate.

Experimental for human IL-1β-hFc: A plate was coated with 50 μL of 4 μg/mL human IL-1f3-hFc in each well, and incubated overnight at 4° C. After the plate was washed once and the residual liquid was removed, each well was blocked with 300 μL of 1% BSA solution (dissolved in PBS) and the plate was incubated at 37° C. for 2 h. Then the plate was washed three times and the residual liquid was removed. […] Two duplicate wells were set for the above concentrations, with a final volume of 50 μL per well, and the plate was incubated for 10 min. […] Then the plate was incubated at 37° C. for 30 min. After the plate was washed three times and the residual liquid was removed, 50 μL of anti-His murine monoclonal antibody (HRP-labeled) working solution was added to each well, and the plate was incubated at 37° C. for 30 min. After the plate was washed four times and the residual liquid was removed, 50 μL of TMB chromogenic solution was added to each well for color developing for 10 min or 5 min away from light at room temperature, then 50 μL of stop solution was added to each well to stop the reaction. Then the plate was put into a plate reader immediately, and the OD value of each well in the plate was read at 450 nm.
The data were analyzed and processed using SoftMax Pro 6.2.1 software and 4-parameter fit curves were plotted using the antibody concentration as the abscissa and the absorbance as the ordinate.

B1: anti-IL-1β murine monoclonal antibody 3H6 (antibody, V domains shown)
VH: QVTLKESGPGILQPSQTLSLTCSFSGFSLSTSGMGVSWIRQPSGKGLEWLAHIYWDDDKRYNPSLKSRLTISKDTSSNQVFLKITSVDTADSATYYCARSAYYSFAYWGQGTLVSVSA
VL: DIVMTQSHKFMSTSVGGRVRITCKASQDVDTDVAWFQQKPGQSPKLLIYWASTRHTGVPDRFTGSGSGTDFTLTISNVQSEDLADYFCQQYSSYPTFGAGTKLELK
notes: Mouse monoclonal antibody purified from hybridoma supernatant on protein A; also called antibody secreted by hybridoma cell line LT010 (IL-1β-3H6), CCTCC NO: C2018133
Regarding B1, the 50% effective concentration (EC50) with human IL-1β-hFc came out at 137 pM; with human IL-1β-His-Bio [1], 99 pM. The “OD (450 nm)” value with human IL-1β-His-Bio [2] was 1.23 OD450.

As a reminder, the EC50 is the midpoint of the concentration-response curve. A low value points to a more potent agent.
